Patent publication US20200140532A1

The binders below were run against recombinant cynomolgus Aggrecan G1-IGD-G2 (cynomolgus) (assay: periplasmic extract ELISA).

Row | OD 450 nm | Binder
1 | 0.6 OD 450 nm | C0101PMP102G11 (VHH, not shown: large carriers) VHH: EVQLVESGGGLVQAGGSLRLSCAASGRSFSSYAMGWFRQAPGKEREFVSIISWSGGSTVYADSVKGRFTISRDNAKNTVYLQMNSLKPEDTAIYYCAAGRLYRATPRPADFGSWGQGTQVTVSS
2 | 2.21 OD 450 nm | C0101PMP117G09 (VHH, not shown: large carriers) VHH: EVQLVESGGGSALPGGSLRLSCAASGITFSSRYMRWYRQAPGRQRELVAAISSGGRTDYVDSVRGRFTLSINNAKNTVYLQMNDLKPEDTAVYYCYRPRMYVDGTYEKELWGQGTLVTVSS
3 | 1.83 OD 450 nm | C0101PMP609C09 (VHH, not shown: large carriers) VHH: DVQLVESGGGLVQPGGSLRLSCAASGTIFSINVMGWYRQAPGKEREFVAAITTGGRTNYADSVKGRFTISRDNSKNTVYLQMNSLRPEDTAVYYCNAEVTTGWVGYSWYDYWGQGTMVTVSS
4 | 1.24 OD 450 nm | C0101PMP606A05 (VHH, not shown: large carriers) VHH: DVQLVESGGGLVQPGGSLRLSCVASGRTFSIYTMGWFRQAPGKEREFVAAISWSGGRTYYADSVKGRFTISRDNSKNTVYLQMNSLRPEDTAVYYCTAYTGRSYGSYDYWGQGTLVTVSS
5 | 2.48 OD 450 nm | C0101PMP608A05 (VHH, not shown: large carriers) VHH: DVQLVESGGGLVQPGGSLRLSCAASGRTFSTYTMGWFRQAPGKEREFVAAISWSGGTTYYADSVKGRFTISRDNSKNTVYLQMNSLRPEDTAVYYCAARPRYYYYSLYSYDYWGQGTLVTVSS
6 | 2.5 OD 450 nm | C0101PMP112A01 (VHH, not shown: large carriers) VHH: EVQLVESGGGLVQTGGSLRLSCVASGRAFSNYIMGWFRQAPGKERDFVAAINWNGVTTHYTDSVKGRFTISRDNAKSTSYLQMDSLKPDDTAVYFCAARGTVYSRTYGVSEEGYMYWGQGTQVTVSS
7 | 1.32 OD 450 nm | C0101PMP601E08 (VHH, not shown: large carriers) VHH: DVQLVESGGGLVQPGGSLRLSCTASGRTFSSYAVGWFRQAPGKEREFVAAISRSGRSTYYADSVKGRFTISRDNSKNTVYLQMNSLRPEDTAVYYCAAGLSYYSPHAYYDYWGQGTLVTVSS
8 | 2.36 OD 450 nm | C0101PMP112A03 (VHH, not shown: large carriers) VHH: EVQLVESGGGLVQPGGSLRLSCAASGSIFSNRFMYWYRQAPGKQRELVASITLSGSTNYADSVKGRFTISRDNAKNTVYLQMNSLKPEDTAVYYCNTFLQNSFYWGQGTQVTVSS
9 | 1.57 OD 450 nm | C0101PMP604G09 (VHH, not shown: large carriers) VHH: DVQLVESGGGLVQPGGSLRLSCVASGRTFSSYAMGWFRQAPGKEREFVAAITWSSATTYYADSVKGRFTISRDNSKNTVYLQMNSLRPEDTAVYYCAAARIPVGRRSENWDYWGQGTLVTVSS
10 | 2.32 OD 450 nm | C0101PMP114F08 (VHH, not shown: large carriers) VHH: EVQLVESGGGLVQAGGSLRLSCAASGSTFIINVVRWYRRTPGKQRELVATISSGGNANYVDSVRGRFSISRDGAKNAVDLQMNGLKPEDTAVYYCNVPTTHYGGVYYGPYWGQGTQVTVSS
11 | 1.25 OD 450 nm | C0101PMP604G01 (VHH, not shown: large carriers) VHH: DVQLVESGGGLVQPGGSLRLSCAASGRTFSSYTMGWFRQAPGKEREFVAAISWSGRTTYYADSVKGRFTISRDNSKNTVYLQMNSLRPEDTAVYYCAAYRRVRYTNLEVWDYWGQGTLVTVSS
12 | 2.57 OD 450 nm | C0101PMP113A01 (VHH, not shown: large carriers) VHH: EVQLVESGGGLVQPGGSLRLSCSASGFTFSGSWMFWVRQAPGKDYEWVASINSSGGRTYYDDSVKGRFTISRDSAKNTLYLEMNNLKPEDTALYFCARSPRVGSWGQGTQVTVSS
13 | 2.41 OD 450 nm | C0101PMP606A07 (VHH, not shown: large carriers) VHH: DVQLVESGGGLVQPGGSLRLSCVASGRTFSIYGMGWFRQAPGKEREFVAAINGGSRTYYADSVKGRFTISRDNSKNTVYLQMNSLRPEDTAVYYCAADRSGYGTSLDWWYDYWGQGTLVTVSS
14 | 2.12 OD 450 nm | C0101PMP117D05 (VHH, not shown: large carriers) VHH: KVQLVESGGGLVQAGGSLRLSCAASRRTFNMMGWFRQAPGKEREFVAYITWNGGDTRYAESVKGRFTVSRDDVKNTMALQMNRLDPLDTAVYYCGVRIHGSNWSTKADDYDNWGQGTQVTVSS
15 | 2.04 OD 450 nm | C0101PMP604B05 (VHH, not shown: large carriers) VHH: DVQLVESGGGLVQPGGSLRLSCVASGRTFSIYTMAWFRQAPGKEREFVAAISWSSGRTYYADSVKGRFTISRDNSKNTVYLQMNSLRPEDTAVYYCTAYTGPRSGYDYWGQGTLVTVSS
16 | 1.37 OD 450 nm | C0101PMP604F02 (VHH, not shown: large carriers) VHH: DVQLVESGGGLVQPGGSLRLSCAASGRTFSSYTMGWFRQAPGKEREFVAAISWSGGRTYYADSVKGRFTISRDNSKNTVYLQMNSLRPEDTAVYYCAAYRRRRASSNRGLWDYWGQGTLVTVSS
17 | 1.18 OD 450 nm | C0101PMP115B08 (VHH, not shown: large carriers) VHH: KVQLVESGGGLVQPGGSLRLSCAASGFTFSMYAMKWVRQAPGKGLEWVSGINSSGGRTNYAGSVKGRFTISRDNAKNTLYLQMNSLKPEDTAVYYCATDFLGGRNSRGQGTQVTVSS

What follows are binders tested against recombinant cynomolgus Aggrecan G1-IGD-G2 (cynomolgus) (assay: ELISA on recombinant G1-IGD-G2).

Row | EC50 | Binder
18 | 0.21 nM | C01010097 (608A05-ALB26) (VHH, not shown: small tags and cut ends) VHH: DVQLVESGGGLVQPGGSLRLSCAASGRTFSTYTMGWFRQAPGKEREFVAAISWSGGTTYYADSVKGRFTISRDNSKNTVYLQMNSLRPEDTAVYYCAARPRYYYYSLYSYDYWGQGTLVTVSS
19 | 0.091 nM | C01010109 (ALB26-608A05-608A05) (VHH, not shown: small tags and cut ends) VHH 1: DVQLVESGGGLVQPGGSLRLSCAASGRTFSTYTMGWFRQAPGKEREFVAAISWSGGTTYYADSVKGRFTISRDNSKNTVYLQMNSLRPEDTAVYYCAARPRYYYYSLYSYDYWGQGTLVTVSS VHH 2: DVQLVESGGGLVQPGGSLRLSCAASGRTFSTYTMGWFRQAPGKEREFVAAISWSGGTTYYADSVKGRFTISRDNSKNTVYLQMNSLRPEDTAVYYCAARPRYYYYSLYSYDYWGQGTLVTVSS
20 | 6.8 nM | C01010046 (601E08-ALB26) (VHH, not shown: small tags and cut ends) VHH: DVQLVESGGGLVQPGGSLRLSCTASGRTFSSYAVGWFRQAPGKEREFVAAISRSGRSTYYADSVKGRFTISRDNSKNTVYLQMNSLRPEDTAVYYCAAGLSYYSPHAYYDYWGQGTLVTVSS
21 | 4.4 nM | C01010054 (114F08-ALB26) (VHH, not shown: small tags and cut ends) VHH: EVQLVESGGGLVQAGGSLRLSCAASGSTFIINVVRWYRRTPGKQRELVATISSGGNANYVDSVRGRFSISRDGAKNAVDLQMNGLKPEDTAVYYCNVPTTHYGGVYYGPYWGQGTQVTVSS
22 | 0.076 nM | C01010118 (ALB26-114F08-114F08) (VHH, not shown: small tags and cut ends) VHH 1: EVQLVESGGGLVQAGGSLRLSCAASGSTFIINVVRWYRRTPGKQRELVATISSGGNANYVDSVRGRFSISRDGAKNAVDLQMNGLKPEDTAVYYCNVPTTHYGGVYYGPYWGQGTQVTVSS VHH 2: EVQLVESGGGLVQAGGSLRLSCAASGSTFIINVVRWYRRTPGKQRELVATISSGGNANYVDSVRGRFSISRDGAKNAVDLQMNGLKPEDTAVYYCNVPTTHYGGVYYGPYWGQGTQVTVSS
23 | 5.4 nM | C01010060 (606A07-ALB26) (VHH, not shown: small tags and cut ends) VHH: DVQLVESGGGLVQPGGSLRLSCVASGRTFSIYGMGWFRQAPGKEREFVAAINGGSRTYYADSVKGRFTISRDNSKNTVYLQMNSLRPEDTAVYYCAADRSGYGTSLDWWYDYWGQGTLVTVSS
24 | 0.3 nM | C01010113 (ALB26-606A07-606A07) (VHH, not shown: small tags and cut ends) VHH 1: DVQLVESGGGLVQPGGSLRLSCVASGRTFSIYGMGWFRQAPGKEREFVAAINGGSRTYYADSVKGRFTISRDNSKNTVYLQMNSLRPEDTAVYYCAADRSGYGTSLDWWYDYWGQGTLVTVSS VHH 2: DVQLVESGGGLVQPGGSLRLSCVASGRTFSIYGMGWFRQAPGKEREFVAAINGGSRTYYADSVKGRFTISRDNSKNTVYLQMNSLRPEDTAVYYCAADRSGYGTSLDWWYDYWGQGTLVTVSS
25 | 2.2 nM | C01010094 (604F02-ALB26) (VHH, not shown: small tags and cut ends) VHH: DVQLVESGGGLVQPGGSLRLSCAASGRTFSSYTMGWFRQAPGKEREFVAAISWSGGRTYYADSVKGRFTISRDNSKNTVYLQMNSLRPEDTAVYYCAAYRRRRASSNRGLWDYWGQGTLVTVSS
26 | 0.068 nM | C01010106 (ALB26-604F02-604F02) (VHH, not shown: large carriers; small tags and cut ends) VHH 1: DVQLVESGGGLVQPGGSLRLSCAASGRTFSSYTMGWFRQAPGKEREFVAAISWSGGRTYYADSVKGRFTISRDNSKNTVYLQMNSLRPEDTAVYYCAAYRRRRASSNRGLWDYWGQGTLVTVSS VHH 2: DVQLVESGGGLVQPGGSLRLSCAASGRTFSSYTMGWFRQAPGKEREFVAAISWSGGRTYYADSVKGRFTISRDNSKNTVYLQMNSLRPEDTAVYYCAAYRRRRASSNRGLWDYWGQGTLVTVSS

These binders were tested against recombinant cynomolgus Aggrecan G1-IGD-G2 (cynomolgus) (assay: SPR (ProteOn), off-rate only indicative).

Row | koff | Binder
27 | 0.0018 s⁻¹ | C01010097 (608A05-ALB26) (VHH, not shown: small tags and cut ends) VHH: DVQLVESGGGLVQPGGSLRLSCAASGRTFSTYTMGWFRQAPGKEREFVAAISWSGGTTYYADSVKGRFTISRDNSKNTVYLQMNSLRPEDTAVYYCAARPRYYYYSLYSYDYWGQGTLVTVSS
28 | 0.0031 s⁻¹ | C01010046 (601E08-ALB26) (VHH, not shown: small tags and cut ends) VHH: DVQLVESGGGLVQPGGSLRLSCTASGRTFSSYAVGWFRQAPGKEREFVAAISRSGRSTYYADSVKGRFTISRDNSKNTVYLQMNSLRPEDTAVYYCAAGLSYYSPHAYYDYWGQGTLVTVSS
29 | 0.0069 s⁻¹ | C01010054 (114F08-ALB26) (VHH, not shown: small tags and cut ends) VHH: EVQLVESGGGLVQAGGSLRLSCAASGSTFIINVVRWYRRTPGKQRELVATISSGGNANYVDSVRGRFSISRDGAKNAVDLQMNGLKPEDTAVYYCNVPTTHYGGVYYGPYWGQGTQVTVSS
30 | 0.02 s⁻¹ | C01010060 (606A07-ALB26) (VHH, not shown: small tags and cut ends) VHH: DVQLVESGGGLVQPGGSLRLSCVASGRTFSIYGMGWFRQAPGKEREFVAAINGGSRTYYADSVKGRFTISRDNSKNTVYLQMNSLRPEDTAVYYCAADRSGYGTSLDWWYDYWGQGTLVTVSS
31 | 0.15 s⁻¹ | C01010094 (604F02-ALB26) (VHH, not shown: small tags and cut ends) VHH: DVQLVESGGGLVQPGGSLRLSCAASGRTFSSYTMGWFRQAPGKEREFVAAISWSGGRTYYADSVKGRFTISRDNSKNTVYLQMNSLRPEDTAVYYCAAYRRRRASSNRGLWDYWGQGTLVTVSS
